From patent US20260317448 (published 2026) come the findings set out here.

One experiment has as its target T1, 2-hsALPI peptide (human, intestinal alkaline phosphatase aa234-250).
T1 chain: PEYPADASQNGIRLDGK
Nature of the experiment: ELISA.

Experiment [1] has as its target T2, germ cell alkaline phosphatase (human, UniProt P10696).
T2 chain: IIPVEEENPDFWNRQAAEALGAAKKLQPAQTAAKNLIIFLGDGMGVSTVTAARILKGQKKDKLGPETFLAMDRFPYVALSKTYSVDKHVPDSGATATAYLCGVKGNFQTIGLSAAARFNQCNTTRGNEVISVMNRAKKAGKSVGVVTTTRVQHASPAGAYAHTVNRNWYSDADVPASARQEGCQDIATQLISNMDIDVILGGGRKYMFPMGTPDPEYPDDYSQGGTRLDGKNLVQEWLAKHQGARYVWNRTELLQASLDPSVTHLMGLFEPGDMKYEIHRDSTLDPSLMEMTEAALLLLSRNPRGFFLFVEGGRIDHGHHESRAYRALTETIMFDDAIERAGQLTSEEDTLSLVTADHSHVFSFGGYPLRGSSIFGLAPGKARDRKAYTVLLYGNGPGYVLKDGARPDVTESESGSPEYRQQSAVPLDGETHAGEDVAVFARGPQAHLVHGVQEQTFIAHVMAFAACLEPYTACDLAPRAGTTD
Nature of the experiment: other, western blot. (A western blot detects proteins with antibodies after separation by electrophoresis.)

Experiment [2] has as its target T3, placental alkaline phosphatase (human, UniProt P05187).
T3 chain: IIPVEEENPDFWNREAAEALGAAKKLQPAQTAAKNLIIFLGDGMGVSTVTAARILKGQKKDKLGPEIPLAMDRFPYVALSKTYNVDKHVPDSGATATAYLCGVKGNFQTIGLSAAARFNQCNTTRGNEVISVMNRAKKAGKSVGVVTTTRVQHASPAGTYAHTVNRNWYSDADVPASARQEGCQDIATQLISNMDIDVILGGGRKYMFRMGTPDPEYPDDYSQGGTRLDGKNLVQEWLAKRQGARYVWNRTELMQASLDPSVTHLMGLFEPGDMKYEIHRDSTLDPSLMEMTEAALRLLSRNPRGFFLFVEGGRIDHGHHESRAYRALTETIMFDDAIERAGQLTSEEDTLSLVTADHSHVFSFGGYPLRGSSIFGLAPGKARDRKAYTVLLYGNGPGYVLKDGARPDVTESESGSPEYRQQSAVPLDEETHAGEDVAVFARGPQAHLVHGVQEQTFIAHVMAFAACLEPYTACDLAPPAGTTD
Briefly: other, western blot.

Experiment [3] addresses T4, tissue-nonspecific alkaline phosphatase (human, UniProt P05186).
T4 chain: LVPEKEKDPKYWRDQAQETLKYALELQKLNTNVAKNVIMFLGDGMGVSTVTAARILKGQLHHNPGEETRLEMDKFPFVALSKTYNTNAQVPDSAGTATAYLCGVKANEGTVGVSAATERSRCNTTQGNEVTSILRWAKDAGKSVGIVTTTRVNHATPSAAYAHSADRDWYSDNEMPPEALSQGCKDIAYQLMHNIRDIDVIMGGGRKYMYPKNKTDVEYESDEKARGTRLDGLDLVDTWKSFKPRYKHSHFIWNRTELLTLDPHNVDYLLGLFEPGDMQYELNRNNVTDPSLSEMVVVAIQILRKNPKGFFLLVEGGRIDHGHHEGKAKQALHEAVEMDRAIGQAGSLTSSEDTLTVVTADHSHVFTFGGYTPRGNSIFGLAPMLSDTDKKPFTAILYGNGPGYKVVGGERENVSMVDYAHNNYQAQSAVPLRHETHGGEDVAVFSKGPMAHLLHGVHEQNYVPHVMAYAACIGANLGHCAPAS
Briefly: other, western blot.

A further experiment has as its target T5, 6-hsALPI peptide (human, intestinal alkaline phosphatase aa416-438).
T5 chain: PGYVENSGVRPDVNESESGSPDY
Nature of the experiment: ELISA. In general terms: An ELISA detects its analyte on a solid surface through an enzyme-linked reagent.

B1: CDI005E8 (antibody, V domains shown)
VH: CQSLEESGGGLVQPGASLTLTCTASGFSFTNNYWIYWVRQAPGKGLEWIGSVIISSSSAYYASWAKGRFTITKPSSTTVTLQVTSLTAADTATYFCVTGGILWGPGTLVTVSS
VL: MDTRAPTQLLGLLLLWLPGARCDVVMTQTPASVEAAVGGTVTIKCQASQSIGTALAWYQQKPGQPPKRLIYKASTLTSGVPSRFKGSGSGTDFTLTISDLECADAATYYCQCTVDDSSSGSSYGNAFGGGTEVVVRG
Turning to B1, in the experiment with 2-hsALPI peptide, the Kd (as a rule, the equilibrium constant for the complex coming apart) worked out at 0.00711 nM. Also, the binding result in experiment [1], in experiment [2] and in experiment [3] was “no binding” throughout.

B2: CDI022E3 (antibody, V domains shown)
VH: CQSLEESGGRLVTPGTPLTLTCTVSGIDLSTYAMGWVRQAPGEGLEWIGTIGVSGSTYYASWAKGRFTISKTSTTVDLKMTSPATEDTATYFCARGSVWGPGTLVTVSL
VL: AQVLTQTPASVEAAVGGTVTIKCQASQSISTWLAWYQQKPGQAPKRLIYSASTLASGVSSRFKGSGSGTEFTLTISDLECADAATYYCRCSYGKSYGEAFGGGTEVVVKG
With B2, the Kd with 2-hsALPI peptide came to 0.021 nM; in the experiment with 6-hsALPI peptide, 0.2 nM.
